In patent publication US20200317768A1 (published 2020):
Substitutions are numbered along the chain they refer to.

Key:
[1] = molecular target: T1, Cynomolgus monkey latent myostatin (cynomolgus monkey, UniProt Q95J86 25-266; Q95J86 267-375); experiment: SPR (BIACORE T200) 37C, pH 5.8, antibody captured by ProA/G
T1 construct: Latent form = complex of two propeptides and the mature dimer; also called Cyno latent myostatin
T1 sequence 1: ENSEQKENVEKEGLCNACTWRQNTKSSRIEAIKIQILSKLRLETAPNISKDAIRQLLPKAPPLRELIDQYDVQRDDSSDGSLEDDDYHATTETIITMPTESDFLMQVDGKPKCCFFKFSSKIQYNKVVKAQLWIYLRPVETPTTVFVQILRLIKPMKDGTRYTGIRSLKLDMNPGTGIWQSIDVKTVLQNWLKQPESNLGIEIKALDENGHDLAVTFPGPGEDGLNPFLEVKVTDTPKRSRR
T1 sequence 2: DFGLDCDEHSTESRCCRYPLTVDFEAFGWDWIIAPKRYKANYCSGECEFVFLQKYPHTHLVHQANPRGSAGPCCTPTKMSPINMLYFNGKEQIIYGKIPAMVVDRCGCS

Human latent myostatin = molecular target: T2, Human latent myostatin (human, UniProt O14793 25-266; O14793 267-375); experiment: as above
T2 construct: also called human myostatin latent form
T2 sequence 1: T1 sequence 1 with A52V
T2 sequence 2: T1 sequence 2

Mouse latent myostatin = molecular target: T3, Mouse latent myostatin (mouse, UniProt O08689 26-267; O08689 268-376); experiment: as above
T3 construct: Latent form = complex of two propeptides and the mature dimer
T3 sequence 1: T1 sequence 1 with N2G, Q5R, K6E, T19A, K25R, S26Y, K59R, V107A, E140K, N173S
T3 sequence 2: T1 sequence 2

[2] = molecular target: T4, cynomolgus monkey FcγRIIb extracellular domain, C-terminal His-tag (cynomolgus monkey); experiment: SPR; FcgR bound per captured antibody, normalized to SG1
T4 construct: also called cyno FcγRIIb; cynoFcγRIIb
T4 chain: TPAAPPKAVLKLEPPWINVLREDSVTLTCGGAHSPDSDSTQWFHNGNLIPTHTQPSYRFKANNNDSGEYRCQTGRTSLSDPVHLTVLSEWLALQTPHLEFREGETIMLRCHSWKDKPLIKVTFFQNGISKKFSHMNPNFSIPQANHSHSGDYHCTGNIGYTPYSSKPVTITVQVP

[3] = molecular target: T5, cynomolgus monkey FcγRIIa1 extracellular domain, C-terminal His-tag (cynomolgus monkey); experiment: as above
T5 construct: also called cyno FcγRIIa1; FcgRIIa1
T5 chain: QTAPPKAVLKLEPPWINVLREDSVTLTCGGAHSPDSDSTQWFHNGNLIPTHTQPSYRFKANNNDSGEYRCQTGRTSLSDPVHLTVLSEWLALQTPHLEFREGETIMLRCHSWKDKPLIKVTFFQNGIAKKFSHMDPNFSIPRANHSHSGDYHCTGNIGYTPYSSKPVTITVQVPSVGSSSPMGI

[4] = molecular target: T6, cynomolgus monkey FcγRIIa3 extracellular domain, C-terminal His-tag (cynomolgus monkey); experiment: as above
T6 construct: also called cyno FcγRIIa3; FcgRIIa3
T6 chain: T5 chain with P95T, T121A, A128S, H133P, D135N

[5] = molecular target: T7, cynomolgus monkey FcγRIIa2 extracellular domain, C-terminal His-tag (cynomolgus monkey); experiment: as above
T7 construct: also called cyno FcγRIIa2; FcgRIIa2
T7 chain: T5 chain with P95T, T121A, I127K, A128S, K130N, D135N, R142Q

Kd [1]: 25.9 nM
Kd (Human latent myostatin): 34 nM
Kd (Mouse latent myostatin): 22.6 nM
amount of FcgR binding (SG1 = 100) [2]: 100 SG1 = 100
amount of FcgR binding (SG1 = 100) [3]: 100 SG1 = 100
amount of FcgR binding (SG1 = 100) [4]: 100 SG1 = 100
amount of FcgR binding (SG1 = 100) [5]: 100 SG1 = 100
B1: MS_M103205H795-SG1/M103202L889-SK1 (antibody, human IgG1, kappa)
heavy: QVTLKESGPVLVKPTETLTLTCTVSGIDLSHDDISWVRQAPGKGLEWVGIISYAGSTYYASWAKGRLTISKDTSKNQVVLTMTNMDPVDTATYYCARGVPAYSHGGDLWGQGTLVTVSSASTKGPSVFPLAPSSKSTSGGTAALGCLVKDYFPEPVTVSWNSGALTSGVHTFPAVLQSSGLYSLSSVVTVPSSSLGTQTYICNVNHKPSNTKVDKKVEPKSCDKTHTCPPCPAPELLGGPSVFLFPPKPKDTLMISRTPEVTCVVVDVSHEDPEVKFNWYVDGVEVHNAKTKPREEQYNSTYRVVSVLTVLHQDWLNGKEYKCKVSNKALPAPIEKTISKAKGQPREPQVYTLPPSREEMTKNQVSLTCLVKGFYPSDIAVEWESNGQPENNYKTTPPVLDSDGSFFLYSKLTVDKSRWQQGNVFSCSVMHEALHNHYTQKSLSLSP
light: DIVMTQSPATLSLSPGERATLSCTSSQSVYHANWLSWFQQKPGQPPKLLIYWASTLAYGVPSRFSGSGSGTDFTLTISSLQPEDAATYYCAGGYGGGRYAFGQGTKVEIKRTVAAPSVFIFPPSDEQLKSGTASVVCLLNNFYPREAKVQWKVDNALQSGNSQESVTEQDSKDSTYSLSSTLTLSKADYEKHKVYACEVTHQGLSSPVTKSFNRGEC
notes: also called MS1032LO06-SG1
